Assay: label from the status in PepcDB records
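Also: failed if final PepcDB status was selected cloned or expressed and not failed if soluble or beyond.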

Sequence | protein production
MPTFLAALLTGLFNLCKSKLGYFVATAFVWLGINWGSYHFVISPLVEQLYTYVDSVGTAGGRFGELALRALGLLNFDRALTMIISAYVSRFAMLNGRLYLFKRGYGVAPPASPKHEPFIPPAG | failed
MPTINQLIRYGRKPKKKKSKAPALQGNPQKRGVCIKVSTMTPKKPNSALRKIARVRLSNGIEVTAYIPGIGHNLQEHSVVLVRGGRVKDLPGVRYKIIRGALDAAGVEGRRQSRSKYGAKRPKDQKK | failed
MPTKTLRIPTTDGQADAFAAFPDHSERYPGVLMYADGFGIRPVLREMALELAGHGYYVLVPNSFYRHGPAPLVELPEYIGEGIRPAVFAQLMPLIEAHTAERVLSDADAYLRFLTTQPEVGAGPVAVTGYCIGGLYAMRTAAAHPDQVAAVAAFHGPVGVDGANLFSKLTAQVHLGHAEGDMTPEALGELNQALDAAGVGYTSEIYPGTIHGFTMSDTDAYSAFGLKRHWDRLLPLLDRTL | failed
MPTKTYSEEFKRDAVALYENSDGASLQQIANDLGINRVTLKNWIIKYGSNHNVQGTTPSAAVSEAEQIRQLKKENALQRARTRHPAESCLEHHHHHH | not failed
MPTLGFRFRAHTDEQTLRALKAQLKLACEVYNTLRWADIYFYQRDGKGLTQTELRQLALDLRKQDDEYKQVYSQVVQQIADRYYEARQRFFEGLARFPKEKKPHKYYSLVYPQYGWKILQVREIRKGSKKKLITLKLSNLGVFKVIVHRDFPLDKVKRVVVKLTRSERIYITFVVEGYEFPKLPNTGKVVAIDVGVEKLLVTSDSEYFPNLRPLEKALWKVKHLHRELSRKKFLSNNWFKAKVKLARAYEHLKNLRTDLYMKLGKWFAEHYDVVVMEDIHVKQLIGKSLRSLRRRLSDVAFSELRDLIKYQLEKYGKKLILVNPAYTSKTCARCGYVKEDLSLSDRVFVCSNCGWIADRDYNASLNILRGSGSERSLVPVELRPLPVPALRYWHGRAVKLEHHHHHH | failed
MPTLLNIQEFNKLNMNTILHITKRQQWEQAKNVGSYHADSLDTEGFIHSSKSIQILKVANRFFHHQTELVLLFIDSDQVKPEIRYEAADGDLFPHIYGELNLDAVYQVIDFEPGEDGLFEVPPEVVSLG | failed
MPTPADDLVVIGKIVSVYGIRGEVKVYSFTDPLDNLLDYRRWTLRRDGEIRQAELVRGRLHGKVLAAKLKGLDDREEARTFTGYEICIPRSELPSLEEGEYYWHQLEGLKVIDQGRQLLGVIDHLLETGANDVMVVKPCAGSLDDRERLLPYTGQCVLSIDLAAGEMRVDWDADF | not failed
MPTTSRPALDVKGGTSPAKEDANQEMSSVAYSNLAVKDRKAVAILHYPGVASNGTKASGAPTSSSGSPIGSPTTTPPTKPPSFNLHPAPHLLASMQLQKLNSQYQGMAAATPGQPGEAGPLQNWDFGAQAGGAESLSPSAGAQSPAIIDSDPVDEEVLMSLVVELGLDRANELPELWLGQNEFDFTADFPSSC | failed
MPTVAPTTVKPTTIPKETTTIAFTTDSSIEKPFGLDVSQASVGYVNIVWGRGTIDCYNVYVDGERRRTGISAQSLKLPVYTEGTHTIAITTVVGTRESEKLEVQVAITGTGEKETEPETCPEELKPQLKKNVPLRDDRIAIELNNKTNGKYSDSEIYWCILGNNENNQLCYMDKDGNMIPASESLNTVEVNGTKYANIYHTLAESDHVYAPTIRSGRMYLSYGKPVYVKFNGSTGYAGPDLNNPGDVNANTLFEFAEFTIEGKNYWGNTTRVDYFCFPMVTRLIGGSLYGGYDNVVGDIGTRDEIFTAFKNEVPNEYKSLVRDDRIIAPCKSTFNVGQDNGNYFDNYINEFWNKYANEDLRFSSESGSFVGRVVGNQMRFTREGDSTVYYVDKPNTQEVLEGKGAFDRGNGVEKAIEAQLCAAFNRGVATEPDKWYTPSQYYKNSVANFYAGFFHEHSVLGKAYGFCYDDVNDQSTLLQYNKADALVIDLKW | failed
MPVAEQPYHHGSLRRVLLARAESTLEKDGVDGLSLRQLAREAGVSHAAPSKHFRDRQALLDALAESGFLRLTAALERAVEEAESHARARFAALAGAYVSFALAHRELLALMYGNKHAPGAASQVVEAGHASMDLTVRIVTEAQAAGDIGPGDASRIALVAFATFHGIATLAAGGMLDGAPVDEVVTAASDTFWRGLAQA | not failed
MPVAKKYFEIRWHGRAGQGAKSASQMLAEAALEAGKYVQAFPEYGAERTGAPMRAFNRIGDEYIRVRSAVENPDVVVVIDETLLSPAIVEGLSEDGILLVNTVKDFEFVRKKTGFNGKICVVDATDIALQEIKRGIPNTPMLGALVRVTGIVPLEAIEKRIEKMFGKKFPQEVIDANKRALRRGYEEVKCSE | not failed
MPVAVVANPKGGVGKTTLATNLAGYFAARDHAVMLGDTDRQQSSREWLALRPATARPIHTWDISADHIAKPPKGTTHVVLDTPAGLHGWRLADLIRLAGHVIVPLQPSMFDILATQAFLCKLADEKPVRHGEAKVGVVGMRVDMRTRAAEQLQRFVQGLQIPILGYLRDTQNYVQLAAHGLTLWDVAPSRVARDVEQWRGILDWMAPGGITASPDSM | failed
MPVCILLLRFRDDVHNERFYTLVGIFIVGALCLMILGGTFFYIEYKRAQKQTFVMFFKGSLKGLVTTAPVTYRGVKIGEVKVIEITENKEHSKVLIPVYVQFFVERTYGFSQDPIHLLIDNGYVANITKPNLLTGVAEIELIKPTPAVKYKQTYYHSYPVFPTHNSAEKYTSMEEAFEAAKKAFEDVSELVRSKEIQDTLEAIQKVSENLGQLASSLNQDVPSVVAYLNQSLKQITSAAYSTQNLTDYLSRYPESLLRGKRLEHHHHHH | failed
MPVGGLLPLFSSPGGGGLGSGLGGGLGGGRKGSGPAAFRLTEKFVLLLVFSAFITLCFGAIFFLPDSSKLLSGVLFHSNPALQPPAEHKPGLGARAEDAAEGRVRHREEGAPGDPGAGLEDNLARIRENHERALREAKETLQKLPEEIQRDILLEKEKVAQDQLRDKDLFRGLPKVDFLPPVGVENREPADATIREKRAKIKEMMTHAWNNYKRYAWGLNELKPISKEGHSSSLFGNIKGATIVDALDTLFIMGMKTEFQEAKSWIKKYLDFNVNAEVSVFEVNIRFVGGLLSAYYLSGEEIFRKKAVELGVKLLPAFHTPSGIPWALLNMKSGIGRNWPWASGGSSILAEFGTLHLEFMHLSHLSGDPVFAEKVMKIRTVLNKLDKPEGLYPNYLNPSSGQWGQHHVSVGGLGDSFYEYLLKAWLMSDKTDLEAKKMYFDAVQAIETHLIRKSSGGLTYIAEWKGGLLEHKMGHLTCFAGGMFALGADGAPEARAQHYLELGAEIARTCHESYNRTYVKLGPEAFRFDGGVEAIATRQNEKYYILRPEVIETYMYMWRLTHDPKYRTWAWEAVEALESHCRVNGGYSGLRDVYIARESYDDVQQSFFLAETLKYLYLIFSDDDLLPLEHWIFNTEAHPFPILREQKKEIDGKEK | not failed
MPVKKLKQFLDSHKIKYLSIAHSPAYTAQEIAASAHVSGKQLAKTVIIKMDGRLAMVVLPASDHITFMKLKEAIGTSDLELATESEFEGKFAECDVGAMPPFGNLYGLPVLVSTKLSAQDNILFNAGSHSELMQLSFGDFEKLVKPTLVTL | not failed
MPVLLSRLASRTNPSLANRCAMDTWLRSAIDYISSWIEFQQTTIQQPGVIVAFAHRGEVVAEHAFGVANLDTGEKLTPRHRCRIASHSKSFTSAGIMKLREQRKLRLDDSVGQYVGGLHPRVAETTIAQLLSHSAGLTRDGADSGQFIDRRPYLNAEELLAELKLPTAIEPGTRFKYSNHGFGLLGLVIEAVTKEPYTAWIKREIIEPAGLRETEPDAPLPKGAAFARGHTRKVPLGERCVIPGDNPTHAMASATGFAATAADTARFFAQLAPNARKSVLSVASRREMTRHHWRIPQSFEAYYGLGIGAGKLDGWDWLGHGGHFQGYISRTCAIPACELAISIISNSIDGAAPFWMDGAMQILRTFKTRGAPDRRVRDWTGRWWTIWGATDLVPMGDRVLIANPQFNNPFMDAGEIEVTGRDTGRIAAAAGHSSHGEPVRRVRDARGKVSDIWLAGANVKPASVVAREIARQYPPRKRRPTP | failed
MPVTEISEKLSVSPQPSIEDIQSLRDQGFKTLINNRPDNEDASQPNTRAERQQAKQCDLSYAFIPVTADTITEADVRAFQRAVDESDGPVLAHCQTGKRALNLYLIGEVLDGSMSVDKVVEFGRSRGFDTSAAAAWLKQHAARRPQVKGFFDKRTWSVQYVISDPLTRKCAIVDPVLDFDEKSGATATINADAILDYIRDNGLTVEWILDTHPHADHFSAAHYLQEKTGARTAIGERVVDVQKLWKGIYNWPELATDGSQWDRLFAHGETFEVGSIDAKVLFSPGHTLASITYVIGDAAFVHDTLFMPDSGTARADFPGGDARVLWKSIQEILALPAETRIFTGHDYQPEGRAPRWESTVAEQKKSNPHLAGVNEQEFVALRTTRDKTLPMPKLILHALQVNIRGGRLPEPEANGKRYLKFPLDALQGAAWE | failed
MPYDWKRTETRQELRLWPHNSLPPRGAAGFVLLVFALGLLPLIAVLGSPLLWGLLPFLLLAVAGLWLAIEANYRQRRILEVLTLDPERAHLVRHNPRGAVQEWDCNRYWARATLHAHGGPVPHYVTLQGCGREVEIGAFLSEDERIALYDDLREMLSK | failed
MPYITIEGGALTREQKSELIRKVTEVASEVMQIPMEFFLCTVKELPDENIGIGGRTIDLIKLEHHHHHH | not failed
MQAETNSAPLAAALYMIAAMSIIGVIDNYVIRLAESIGLWQFHFMRSLMMLPLVGLMSLMGLGGLFPRRKGWVLLRSLLLTVAMLFYFSALAFMPIAQALAGLFTSPIFVLLVTAFGLRQRIGPWRILAVLMGFAGILFVLQPDPGAFDATVLIPVAGGFFYALGAVVTRRHCAGESTAALLGAMVTALGLTGLGGLIWLALFPATPLPGPDGFVARGWVWPMAEAMPWVALQAVGSATAVFMLIRAYQLGEPSYVSVFEFSVMIFGPLFAWVVLGVGLGPWQMLGIGLIVLAGAIIALRSG | failed
MQAIRSILVVIEPDQLEGLALKRAQLIAGVTQSHLHLLVCEKRRDHSAALNDLAQELREEGYSVSTNQAWKDSLHQTIIAEQQAEGCGLIIKQHFPDNPLKKAILTPDDWKLLRFAPCPVLMTKTARPWTGGKILAAVDVGNNDGEHRSLHAGIISHAYDIAGLAKATLHVISAHPSPMLSSADPTFQLSETIEARYREACRTFQAEYGFSDEQLHIEEGPADVLIPRTAQKLDAVVTVIGTVARTGLSGALIGNTAEVVLDTLESDVLVLKPDDIIAHLEELASKE | not failed
MQANRSQLHSPPGTGSSEDASTPQCVHTRLTGEGSCPHSGDVHIQINSIPKECAENASSRNIRSGVHSCAHGCVHSRLRGHSHSEARLTDDTAAESGDHGSSSFSEFRYLFKWLQKSLPYILILSVKLVMQHITGISLGIGLLTTFMYANKSIVNQVFLRLNFFKSYFGPFELLGSILDCWNYRLHSEILFHGLKMPYFIGAFFHHAF | failed
MQARDIMTTTVVSISPDVSVRHAVAMMLQNHVSGLPVVDDHGRVCGMVTEGDLLLRREVRYAPRPARAPELISEIDLERYIGSNGWCVADVMSQDVIVARPDSEVSDIAESLQVHRIKRLPIVEDERLVGIVSRRDILRVIAEAPTTILPRGDEAIRLAVRTRLRSDLGLTPQKVHVSVRNGQVTVDGQVESELKRRAIKVLVEGLGGIAGYKDGLLVSPAHIQD | failed
